Reference: US20220143024A1, “METHODS OF USING IMIPRIDONES” (Board of Regents, The University of Texas System, priority 2019, published 2022)

Assays:
[1] = target: IARS2 (human) (UniProt Q9NSE4); experiment: BioID-MS
[2] = target: MRPS11 (human) (UniProt P82912); experiment: BioID-MS

Chain of IARS2 (human) (Q9NSE4 49-1012 limits assumed): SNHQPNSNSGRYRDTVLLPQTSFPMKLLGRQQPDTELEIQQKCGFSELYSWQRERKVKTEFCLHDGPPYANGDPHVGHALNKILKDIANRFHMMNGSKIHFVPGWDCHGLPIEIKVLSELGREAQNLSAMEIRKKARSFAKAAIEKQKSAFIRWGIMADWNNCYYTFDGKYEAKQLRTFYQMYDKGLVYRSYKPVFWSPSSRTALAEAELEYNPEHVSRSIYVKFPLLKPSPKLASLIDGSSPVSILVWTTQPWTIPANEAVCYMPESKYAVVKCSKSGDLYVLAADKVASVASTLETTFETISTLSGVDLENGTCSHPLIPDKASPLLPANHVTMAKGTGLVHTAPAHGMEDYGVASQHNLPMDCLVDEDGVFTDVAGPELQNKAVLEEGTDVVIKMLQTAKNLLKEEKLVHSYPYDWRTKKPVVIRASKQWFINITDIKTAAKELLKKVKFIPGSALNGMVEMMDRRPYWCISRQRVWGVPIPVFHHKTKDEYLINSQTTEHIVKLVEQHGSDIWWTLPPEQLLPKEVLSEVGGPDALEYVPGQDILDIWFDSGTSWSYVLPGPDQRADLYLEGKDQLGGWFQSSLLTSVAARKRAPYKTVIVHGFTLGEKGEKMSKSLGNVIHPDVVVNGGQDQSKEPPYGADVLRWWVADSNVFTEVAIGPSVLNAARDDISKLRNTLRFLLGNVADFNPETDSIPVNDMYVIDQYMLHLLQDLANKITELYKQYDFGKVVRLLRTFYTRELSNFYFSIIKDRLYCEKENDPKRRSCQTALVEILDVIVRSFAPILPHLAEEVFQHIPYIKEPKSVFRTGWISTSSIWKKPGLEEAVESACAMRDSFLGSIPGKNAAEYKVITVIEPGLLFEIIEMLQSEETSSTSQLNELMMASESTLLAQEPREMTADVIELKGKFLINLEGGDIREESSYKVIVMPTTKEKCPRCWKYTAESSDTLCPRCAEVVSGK

Log2 Fold change (vs control) [1]: 0.43 log2
Log2 Fold change (vs control) [2]: -0.34 log2
Substance: FlagBirA-ClpP (Y118A) (from UniProt P06709 1-321; Q16740 57-277) (enzyme)
